Data from paper PMC3314109.

Molecular target: the mutants of both surface loops (39-loop and 60-loop mutants of FXa)
Experiment: prothrombinase activity titration

Kd: 1 to 2 nM
Substance: factor Va (thrombin activated factor V) (from UniProt P12259 29-737; P12259 1574-2224) (complex)
